The source of these data is article doi:10.1101/2023.08.25.554918 (bioRxiv, 2023).

Holding throughout (experiment): SEC
In general terms: Size exclusion chromatography separates by hydrodynamic size, large species first.

In data set [1] the target is Chimera 2 (Pfu1-Ton2-Pfu3) (Pyrococcus furiosus | Thermococcus onnurineus).
The target of data set [2] is Chimera 3 (Ton1-Ton2-Pfu3) (Thermococcus onnurineus | Pyrococcus furiosus).
For data set [3], the target named is Chimera 6 (Ton1-Pfu2-Pfu3) (Thermococcus onnurineus | Pyrococcus furiosus).
The target of data set [4] is Domain 1 of PfuAmyGT (Pfu1) (Pyrococcus furiosus).
Data set [5] has as its target Chimera 1 (Pfu1-Pfu2-Ton3) (Pyrococcus furiosus | Thermococcus onnurineus).
Data set [6] concerns the target Chimera 4 (Ton1-Pfu2-Ton3) (Thermococcus onnurineus | Pyrococcus furiosus).
Data set [7] deals with Chimera 5 (Pfu1-Ton2-Ton3) (Pyrococcus furiosus | Thermococcus onnurineus).
The data set “SEC” concerns the molecule itself.

As a reminder, the stoichiometry N is a count of units in the complex or per binding partner.

On to Chimera 2 (Pfu1-Ton2-Pfu3) (enzyme), for which the stoichiometry N in data set [1] was determined as 2. Chimera 3 (Ton1-Ton2-Pfu3) (enzyme) displayed a stoichiometry N in data set [2] of 2.

In turn, Chimera 6 (Ton1-Pfu2-Pfu3) (enzyme) came in with a stoichiometry N in data set [3] of 2. Turning to “Domain 1 of PfuAmyGT (Pfu1) (domain or fragment)”, the stoichiometry N in data set [4] stood at 4.

In turn, Chimera 1 (Pfu1-Pfu2-Ton3) (enzyme) yielded a stoichiometry N in data set [5] of 2. Chimera 4 (Ton1-Pfu2-Ton3) (enzyme): in data set [6], the stoichiometry N was found to be 2.

Chimera 5 (Pfu1-Ton2-Ton3) (enzyme) yielded a stoichiometry N in data set [7] of 2.

B1: PfuAmyGT (Pfu1-Pfu2-Pfu3), GH57 4-α-glucanotransferase from Pyrococcus furiosus (enzyme)
chain: MGDKINFIFGIHNHQPLGNFGWVFEEAYEKCYWPFLETLEEYPNMKVAIHTSGPLIEWLQDNRPEYIDLLRSLVKRGQVEIVVAGFYEPVLASIPKEDRIEQIRLMKEWAKSIGFDARGVWLTERVWQPELVKTLKESGIDYVIVDDYHFMSAGLSKEELYWPYYTEDGGEVIAVFPIDEKLRYLIPFRPVDKVLEYLHSLIDGDESKVAVFHDDGEKFGIWPGTYEWVYEKGWLREFFDRISSDEKINLMLYTEYLEKYKPRGLVYLPIASYFEMSEWSLPAKQARLFVEFVNELKVKGIFEKYRVFVRGGIWKNFFYKYPESNYMHKRMLMVSKLVRNNPEARKYLLRAQCNDAYWHGLFGGVYLPHLRRAIWNNLIKANSYVSLGKVIRDIDYDGFEEVLIENDNFYAVFKPSYGGSLVEFSSKNRLVNYVDVLARRWEHYHGYVESQFDGVASIHELEKKIPDEIRKEVAYDKYRRFMLQDHVVPLGTTLEDFMFSRQQEIGEFPRVPYSYELLDGGIRLKREHLGIEVEKTVKLVNDGFEVEYIVNNKTGNPVLFAVELNVAVQSIMESPGVLRGKEIVVDDKYAVGKFALKFEDEMEVWKYPVKTLSQSESGWDLIQQGVSYIVPIRLEDKIRFKLKFEEASG
For B1, in “SEC”, the “stoichiometry N” value amounted to 2.
